{
  "source": "patent US20170137466A1",
  "about": "(UNIVERSITY OF SOUTHAMPTON, published 2017)",
  "biological_target": "T1, HLA-Cw*0102",
  "T1 construct": "whole, on cells; MHC class I molecule on cells, as the partner that takes up the peptide; also called cell surface MHC class I of L721.174 cells",
  "assay": "MHC class I stabilisation on L721.174 cells with increasing peptide, flow cytometry",
  "text": "Cells were stained for cell surface of MHC class I and analysed by flow cytometry. The mean fluorescence intensity of cell surface MHC Class I was plotted against the peptide concentration.\n3×10⁵ cells were used per condition. Following washing in PBS the cells were stained for cell surface of MHC class I and analysed by flow cytometry. The mean fluorescence intensity of cell surface MHC Class I was plotted against the peptide concentration.",
  "data": [
    {"binder": "LNPSVAATL", "note": "[peptide LNPSVAATL (SEQ ID NO: 1)]", "values": [
      {"measurement": "binding result", "value": "binds"}
    ]}
  ]
}
